Assay results as given in the supplement of paper PMC10567573.

B1: CPXM2 (parent)
chain: EILGCPLPDPNNYYHRRNEMTTTD

Variants of: B1
Assay: protein stability index of a GFP-peptide fusion (GPS, HEK-293T) (PSI 1-6); higher = more stable
Conditions: c terminus: a fixed tail appended
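Also: lentivirally expressed fusions sorted by FACS into six bins by GFP to DsRed ratio, PSI derived from sequencing read proportions per bin multiplied by bin number.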

Q: For EILGCPLPDPNNYYHRRNFMTTTD [E19F], which protein stability index is on record?
A: 2.62

Q: With EILGCPLPDPNNYYHRRNNMTTTD [E19N] as the variant, how does the protein stability index read?
A: 3.3

Q: Which protein stability index does the source give for EILGCPLPDPNNYYHRRNKMTTTD [E19K] here?
A: 2.83

Q: With EILGCPLPDPNNYYHRRNLMTTTD [E19L] as the variant, how does the protein stability index read?
A: 2.22

Q: Which protein stability index does the source give for EILGCPLPDPNDYYHRRNEMTTTD [N12D] here?
A: 4.07

Q: With EILGCPLPDPNLYYHRRNEMTTTD [N12L] as the variant, how does the protein stability index read?
A: 3.42

Q: With EILGCPLPDPNCYYHRRNEMTTTD [N12C] as the variant, how does the protein stability index read?
A: 3.44

Q: Which protein stability index does the source give for EILGCPLPDPNNYYHRRNEMGTTD [T21G] here?
A: 3.55

Q: Which protein stability index does the source give for EILGCPLPDPNNYYHRRNEMKTTD [T21K] here?
A: 4.37

Q: Which protein stability index does the source give for ENLGCPLPDPNNYYHRRNEMTTTD [I2N] here?
A: 4.55

Q: With EVLGCPLPDPNNYYHRRNEMTTTD [I2V] as the variant, how does the protein stability index read?
A: 3.79

Q: Which protein stability index does the source give for EKLGCPLPDPNNYYHRRNEMTTTD [I2K] here?
A: 4.54

Q: With EILGCPLPDPNNYYHRRNEMTYTD [T22Y] as the variant, how does the protein stability index read?
A: 3.31

Q: With EILGCPLPDPNNYYHRRNEMTNTD [T22N] as the variant, how does the protein stability index read?
A: 3.47

Q: Which protein stability index does the source give for EILGCPLPDPNNYYHRRNEMTSTD [T22S] here?
A: 3.48

Q: For EILGCPLPDPNNYYHRRNEPTTTD [M20P], which protein stability index is on record?
A: 3.92

Q: For EILGCPLPDPNNYYHRRNENTTTD [M20N], which protein stability index is on record?
A: 3.92

Q: With EILGCPLPDPNNYYHRRNEWTTTD [M20W] as the variant, how does the protein stability index read?
A: 3.12

Q: With EILGCPLPDPNNYYHRRNEGTTTD [M20G] as the variant, how does the protein stability index read?
A: 4.6

Q: With EILGCPLPDPNNYYHRRNESTTTD [M20S] as the variant, how does the protein stability index read?
A: 3.98

Q: For EILGCPLPDPNNYYHRRNEETTTD [M20E], which protein stability index is on record?
A: 4.59

Q: For EILGTPLPDPNNYYHRRNEMTTTD [C5T], which protein stability index is on record?
A: 3.8

Q: Which protein stability index does the source give for EILGWPLPDPNNYYHRRNEMTTTD [C5W] here?
A: 2.72

Q: With EILGQPLPDPNNYYHRRNEMTTTD [C5Q] as the variant, how does the protein stability index read?
A: 3.85

Q: Which protein stability index does the source give for EILGCPLPDPSNYYHRRNEMTTTD [N11S] here?
A: 3.16

Q: With EILGCPLTDPNNYYHRRNEMTTTD [P8T] as the variant, how does the protein stability index read?
A: 3.12

Q: For EILGCPLADPNNYYHRRNEMTTTD [P8A], which protein stability index is on record?
A: 2.9

Q: For EILGCPLVDPNNYYHRRNEMTTTD [P8V], which protein stability index is on record?
A: 3.01

Q: With EILGCPLWDPNNYYHRRNEMTTTD [P8W] as the variant, how does the protein stability index read?
A: 2.62

Q: Which protein stability index does the source give for EILGCPLLDPNNYYHRRNEMTTTD [P8L] here?
A: 2.66

Q: For EILGCPLRDPNNYYHRRNEMTTTD [P8R], which protein stability index is on record?
A: 3.56

Q: Which protein stability index does the source give for EILGCPLPDPNNYSHRRNEMTTTD [Y14S] here?
A: 4.38

Q: For EILGCPLPDPNNYIHRRNEMTTTD [Y14I], which protein stability index is on record?
A: 3.46

Q: With EILGCRLPDPNNYYHRRNEMTTTD [P6R] as the variant, how does the protein stability index read?
A: 2.84

Q: Which protein stability index does the source give for EILGCALPDPNNYYHRRNEMTTTD [P6A] here?
A: 3.16

Q: For EILGCELPDPNNYYHRRNEMTTTD [P6E], which protein stability index is on record?
A: 3.58

Q: For EILGCTLPDPNNYYHRRNEMTTTD [P6T], which protein stability index is on record?
A: 3.49

Q: Which protein stability index does the source give for EILGCYLPDPNNYYHRRNEMTTTD [P6Y] here?
A: 2.44

Q: Which protein stability index does the source give for EILGCQLPDPNNYYHRRNEMTTTD [P6Q] here?
A: 2.92

Q: Which protein stability index does the source give for EILGCGLPDPNNYYHRRNEMTTTD [P6G] here?
A: 2.87

Q: Which protein stability index does the source give for EILGCSLPDPNNYYHRRNEMTTTD [P6S] here?
A: 3.4

Q: For EILGCPLPDPNNYYHRRNEMTTTK [D24K], which protein stability index is on record?
A: 3.65

Q: Which protein stability index does the source give for EILGCPLPDPNNYYHRRNEMTTTS [D24S] here?
A: 3.27

Q: With EILGCPLPDPNNYYHRRNEMTTTE [D24E] as the variant, how does the protein stability index read?
A: 3.53

Q: For EILGCPLPDPNNYYHRRNEMTTTR [D24R], which protein stability index is on record?
A: 3.07

Q: Which protein stability index does the source give for EILGCPLPDPNNYYHRRNEMTTTA [D24A] here?
A: 2.61

Q: Which protein stability index does the source give for EILGCPLPDPNNYYHRRNEMTTTW [D24W] here?
A: 1.86

Q: For EIDGCPLPDPNNYYHRRNEMTTTD [L3D], which protein stability index is on record?
A: 4.32

Q: For EIMGCPLPDPNNYYHRRNEMTTTD [L3M], which protein stability index is on record?
A: 4.05

Q: For EIQGCPLPDPNNYYHRRNEMTTTD [L3Q], which protein stability index is on record?
A: 4.13

Q: With EIPGCPLPDPNNYYHRRNEMTTTD [L3P] as the variant, how does the protein stability index read?
A: 4.7

Q: Which protein stability index does the source give for IILGCPLPDPNNYYHRRNEMTTTD [E1I] here?
A: 2.52

Q: For CILGCPLPDPNNYYHRRNEMTTTD [E1C], which protein stability index is on record?
A: 2.83

Q: With DILGCPLPDPNNYYHRRNEMTTTD [E1D] as the variant, how does the protein stability index read?
A: 3.8

Q: Which protein stability index does the source give for EILGCPLPDHNNYYHRRNEMTTTD [P10H] here?
A: 3.66

Q: With EILGCPLPDWNNYYHRRNEMTTTD [P10W] as the variant, how does the protein stability index read?
A: 2.72

Q: Which protein stability index does the source give for EILGCPLPDMNNYYHRRNEMTTTD [P10M] here?
A: 3.44

Q: Which protein stability index does the source give for EILGCPLPEPNNYYHRRNEMTTTD [D9E] here?
A: 3.15

Q: Which protein stability index does the source give for EILGCPLPMPNNYYHRRNEMTTTD [D9M] here?
A: 2.92

Q: With EILGCPLPKPNNYYHRRNEMTTTD [D9K] as the variant, how does the protein stability index read?
A: 2.85

Q: Which protein stability index does the source give for EILGCPLPDPNNYYHRRVEMTTTD [N18V] here?
A: 2.77

Q: With EILGCPLPDPNNYYHRRKEMTTTD [N18K] as the variant, how does the protein stability index read?
A: 3.57

Q: Which protein stability index does the source give for EILGCPLPDPNNYYHRRDEMTTTD [N18D] here?
A: 4.23

Q: For EILLCPLPDPNNYYHRRNEMTTTD [G4L], which protein stability index is on record?
A: 2.69

Q: With EILCCPLPDPNNYYHRRNEMTTTD [G4C] as the variant, how does the protein stability index read?
A: 3.47

Q: For EILHCPLPDPNNYYHRRNEMTTTD [G4H], which protein stability index is on record?
A: 3.71

Q: For EILGCPLPDPNNYYHRRNEMTTCD [T23C], which protein stability index is on record?
A: 3.8

Q: With EILGCPLPDPNNYYHRRNEMTTGD [T23G] as the variant, how does the protein stability index read?
A: 3.29

Q: Which protein stability index does the source give for EILGCPLPDPNNYYHRRNEMTTLD [T23L] here?
A: 3.07

Q: With EILGCPLPDPNNYYHRRNEMTTID [T23I] as the variant, how does the protein stability index read?
A: 3.55

Q: With EILGCPLPDPNNYYHRRNEMTTKD [T23K] as the variant, how does the protein stability index read?
A: 3.46

Q: For EILGCPLPDPNNYYHRRNEMTTWD [T23W], which protein stability index is on record?
A: 2.48

Q: With EILGCPLPDPNNYYHRRNEMTTHD [T23H] as the variant, how does the protein stability index read?
A: 3.6

Q: With EILGCPLPDPNNNYHRRNEMTTTD [Y13N] as the variant, how does the protein stability index read?
A: 3.89

Q: For EILGCPLPDPNNCYHRRNEMTTTD [Y13C], which protein stability index is on record?
A: 3.77

Q: For EILGCPLPDPNNHYHRRNEMTTTD [Y13H], which protein stability index is on record?
A: 4.18

Q: Which protein stability index does the source give for EILGCPLPDPNNQYHRRNEMTTTD [Y13Q] here?
A: 4.06

Q: Which protein stability index does the source give for EILGCPLPDPNNSYHRRNEMTTTD [Y13S] here?
A: 3.86

Q: Which protein stability index does the source give for EILGCPLPDPNNPYHRRNEMTTTD [Y13P] here?
A: 4.12

Q: For EILGCPLPDPNNYYARRNEMTTTD [H15A], which protein stability index is on record?
A: 3.71

Q: Which protein stability index does the source give for EILGCPLPDPNNYYTRRNEMTTTD [H15T] here?
A: 3.76

Q: Which protein stability index does the source give for EILGCPLPDPNNYYIRRNEMTTTD [H15I] here?
A: 3.52

Q: For EILGCPLPDPNNYYWRRNEMTTTD [H15W], which protein stability index is on record?
A: 2.91

Q: With EILGCPLPDPNNYYMRRNEMTTTD [H15M] as the variant, how does the protein stability index read?
A: 3.23

Q: With EILGCPLPDPNNYYERRNEMTTTD [H15E] as the variant, how does the protein stability index read?
A: 3.62

Q: With EILGCPFPDPNNYYHRRNEMTTTD [L7F] as the variant, how does the protein stability index read?
A: 3.38

Q: Which protein stability index does the source give for EILGCPEPDPNNYYHRRNEMTTTD [L7E] here?
A: 4.08

Q: Which protein stability index does the source give for EILGCPIPDPNNYYHRRNEMTTTD [L7I] here?
A: 3.79

Q: For EILGCPKPDPNNYYHRRNEMTTTD [L7K], which protein stability index is on record?
A: 3.88

Q: For EILGCPNPDPNNYYHRRNEMTTTD [L7N], which protein stability index is on record?
A: 4.13

Q: With EILGCPLPDPNNYYHRVNEMTTTD [R17V] as the variant, how does the protein stability index read?
A: 3.22

Q: Which protein stability index does the source give for EILGCPLPDPNNYYHRHNEMTTTD [R17H] here?
A: 3.3

Q: With EILGCPLPDPNNYYHRLNEMTTTD [R17L] as the variant, how does the protein stability index read?
A: 2.7

Q: For EILGCPLPDPNNYYHRGNEMTTTD [R17G], which protein stability index is on record?
A: 3.79
